Experimental data published in publication PMC7272640, “Molecular docking, synthesis and biological evaluation of Vascular Endothelial Growth Factor (VEGF) B based peptide as antiangiogenic agent targeting the second domain of the Vascular Endothelial Growth Factor Receptor 1 (VEGFR1D2) for anticancer application” (Signal Transduction and Targeted Therapy, 2020).
Bridges are numbered along the chain shown (N, C = ends).

Tests used:
VEGFR1 versus VEGFR2 = conditions: cited from earlier work
Text: Tumor angiogenesis is regulated by the binding of VEGF to receptors (VEGFRs). The major mediator of tumor angiogenesis is VEGFA, more commonly referred to as VEGF. […] However, the role of the VEGFR1 in VEGF-mediated angiogenesis remains a mystery.

VEGFR1 D2 = conditions: quantity not named as Kd in the text; cited from earlier work
Method: (§1) Subsequently, to verify the ability of VGB3 to form a complex with VEGFR1D2, microscale thermophoresis (MST) measurements were performed using a VEGFR1D2-labeled with VGB3 at increasing concentrations. As well as measuring the Kd between VGB3 and its receptor this functional test will also confirm whether the refolded protein VEGFR1D2 assumes the correct conformation. Fluorescently labeled VEGFR1D2 purified and titrated as 1:1 with VGB3.

[1] = target: entire extracellular portion of VEGFR1; conditions: VEGFA to entire extracellular portion of VEGFR1; no reference given; cited from earlier work
Method: as §1

[2] = target: VEGFR1 domain 2 (Homo sapiens) (UniProt P17948); conditions: cited from earlier work
[3] = target: VEGFR-1 (as used in the ELISA-based displacement assay) (UniProt P17948); assay: ELISA; VEGFR-1-binding ELISA-based displacement assay; displacement of btVEGF165 (100 pM) by VGB3
[4] = target: VEGFR-1 (as used in the ELISA-based displacement assay) (UniProt P17948)
[5] = target: T1, His-tagged VEGFR1D2 (second extracellular domain of Vascular Endothelial Growth Factor Receptor 1) (UniProt P17948 129-226, fluorescently labeled); assay: MST; fixed concentration of fluorescently labeled VEGFR1D2; VGB3 titrated at increasing concentrations, initial concentration of ligand 0.25 mM; conditions: both partners purified
T1 construct: VEGFR1 (Flt-1), second extracellular domain; The PDB entries are the cited complexes of VEGFR1D2 used for the design, not necessarily the limits of this construct
T1 sequence (P17948 129-226): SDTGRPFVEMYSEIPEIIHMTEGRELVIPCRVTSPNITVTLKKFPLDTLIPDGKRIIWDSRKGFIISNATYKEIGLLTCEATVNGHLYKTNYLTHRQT

VEGFR-1 (as used in the ELISA-based displacement assay), sequence (P17948 27-1338): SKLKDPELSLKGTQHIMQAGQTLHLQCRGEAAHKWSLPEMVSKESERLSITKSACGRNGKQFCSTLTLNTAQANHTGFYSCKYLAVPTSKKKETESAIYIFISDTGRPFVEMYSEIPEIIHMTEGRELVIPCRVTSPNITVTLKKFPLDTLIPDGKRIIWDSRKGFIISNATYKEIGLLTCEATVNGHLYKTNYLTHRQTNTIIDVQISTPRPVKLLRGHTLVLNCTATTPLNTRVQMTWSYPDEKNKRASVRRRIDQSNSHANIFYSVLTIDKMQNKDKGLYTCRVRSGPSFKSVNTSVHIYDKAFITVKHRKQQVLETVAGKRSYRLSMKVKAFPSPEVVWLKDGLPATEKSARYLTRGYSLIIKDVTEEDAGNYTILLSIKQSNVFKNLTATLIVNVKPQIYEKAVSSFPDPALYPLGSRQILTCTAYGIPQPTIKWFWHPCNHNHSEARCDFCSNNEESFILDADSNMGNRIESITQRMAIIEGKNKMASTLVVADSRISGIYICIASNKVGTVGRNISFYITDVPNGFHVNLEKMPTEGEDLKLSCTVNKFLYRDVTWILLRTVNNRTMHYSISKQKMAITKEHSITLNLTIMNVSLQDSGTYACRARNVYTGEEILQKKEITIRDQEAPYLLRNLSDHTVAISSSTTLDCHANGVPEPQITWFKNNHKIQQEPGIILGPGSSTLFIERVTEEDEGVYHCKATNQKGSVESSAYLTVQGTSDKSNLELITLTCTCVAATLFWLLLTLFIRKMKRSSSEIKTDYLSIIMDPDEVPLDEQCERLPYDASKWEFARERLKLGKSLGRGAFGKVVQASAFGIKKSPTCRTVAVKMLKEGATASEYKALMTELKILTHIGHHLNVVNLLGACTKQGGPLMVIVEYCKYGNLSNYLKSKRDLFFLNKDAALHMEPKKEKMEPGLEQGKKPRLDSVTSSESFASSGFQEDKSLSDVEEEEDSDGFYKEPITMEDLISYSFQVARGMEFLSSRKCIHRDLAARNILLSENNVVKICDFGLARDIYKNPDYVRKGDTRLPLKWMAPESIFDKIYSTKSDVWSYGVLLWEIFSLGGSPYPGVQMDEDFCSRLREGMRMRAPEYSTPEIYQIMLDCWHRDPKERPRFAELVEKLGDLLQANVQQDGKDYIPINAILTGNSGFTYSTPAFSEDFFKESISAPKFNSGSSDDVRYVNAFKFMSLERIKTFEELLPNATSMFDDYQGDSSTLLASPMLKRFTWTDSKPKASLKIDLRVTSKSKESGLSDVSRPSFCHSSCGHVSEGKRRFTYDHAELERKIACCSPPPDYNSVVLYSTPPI
VEGFR1 domain 2 (Homo sapiens), sequence (P17948 151-214): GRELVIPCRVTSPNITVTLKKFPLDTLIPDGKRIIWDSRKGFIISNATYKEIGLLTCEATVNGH

VEGF
affinity of VEGFR1 for VEGF, times higher than VEGFR2 (VEGFR1 versus VEGFR2): 10 times
tight association between VEGFR1 D2 and VEGF (VEGFR1 D2): 113 pM
Kd [1]: ~50 nM

VEGFA (from UniProt P15692)
Kd [2]: 50 nM

B1: VGB3 (mimetic decapeptide based on VEGFB) (peptide)
peptide: H-ECRPPDDGLC-OH
modifications: disulfide 2-10 (inferred)
notes: VEGFB, strand beta7, printed as 102-ECRP-105; VEGFB, loop connecting beta3 to beta4, printed as 62-PDDGL-66; Cys residue added to the C terminus to make the disulfide bond; also called VGB3 peptide; source: synthetic peptide (solid-phase peptide synthesis)
percent displacement of btVEGF165 (100 pM) at 100 μM VGB3 [3]: 63%
inhibition of VEGF165 (0.75 pM)-stimulated proliferation of 4T1 mammary carcinoma cells (MTT assay), IC50 [4]: 30 nM
Kd [5]: 1960 ± 690 nM
stoichiometry N [5]: 1
